Experiments:
[1] = molecular target: T1, recombinant human CD3 epsilon/delta heterodimer (human, UniProt P07766 23-126; P04234 22-105); assay: Octet BLI, mAb on FAB2G sensor, hCD3 E/D 200-50 nM; R^2 1.00
T1 construct: Recombinant protein in solution (200-50 nM) in the Octet assay; also called hCD3 E/D; human CD3E/D

[2] = molecular target: T2, recombinant human CD3 epsilon/gamma heterodimer (human, UniProt P07766 23-126; P09693 23-116); assay: Octet BLI, mAb on FAB2G sensor, hCD3 E/G 200-50 nM; R^2 0.99
T2 construct: Recombinant protein in solution (200-50 nM) in the Octet assay; also called hCD3 E/G

[3] = molecular target: T2, recombinant human CD3 epsilon/gamma …; assay: Octet BLI, mAb on FAB2G sensor, hCD3 E/G 200-50 nM; R^2 0.98
Protocol: (§1) Samples were evaluated by flow cytometry analysis against Jurkat and human Pan-T cells (FIG. 1B) as well as by Octet against recombinant human CD3 proteins to evaluate apparent affinities and binding off-rates (Table 6, infra).

[4] = molecular target: T1, recombinant human CD3 epsilon/delta …; assay: Octet BLI, mAb on FAB2G sensor, hCD3 E/D 200-50 nM; R^2 0.98;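 also: antibodies purified from hybridoma supernatants, measured by Octet binding to recombinant human CD3 protein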
Protocol: as §1

[5] = molecular target: T1, recombinant human CD3 epsilon/delta …; assay: Octet BLI, mAb on FAB2G sensor, hCD3 E/D 200-50 nM; R^2 0.99

T1 sequence (P07766 23-126, stated change not applied, chain 1 of 2): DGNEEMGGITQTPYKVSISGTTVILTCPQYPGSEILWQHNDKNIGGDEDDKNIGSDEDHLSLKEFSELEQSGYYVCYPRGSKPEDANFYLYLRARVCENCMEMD
T1 sequence (P04234 22-105, stated change not applied, chain 2 of 2): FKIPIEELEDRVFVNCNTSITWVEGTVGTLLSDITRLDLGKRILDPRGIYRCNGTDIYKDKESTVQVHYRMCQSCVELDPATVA
T2 sequence (P07766 23-126, chain 1 of 2): as the sequence (P07766 23-126, stated change not applied, chain 1 of 2) above
T2 sequence (P09693 23-116, chain 2 of 2): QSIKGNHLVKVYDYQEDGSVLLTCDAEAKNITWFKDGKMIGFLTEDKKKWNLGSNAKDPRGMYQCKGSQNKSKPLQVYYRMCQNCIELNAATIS

Binder | Kd [1] [nM] | Response [1] | koff [1] [s⁻¹] | kon [1] [M⁻¹ s⁻¹] | Kd [2] [nM] | Response [2] | koff [2] [s⁻¹] | kon [2] [M⁻¹ s⁻¹] | Kd [3] [nM] | Response [3] | koff [3] [s⁻¹] | kon [3] [M⁻¹ s⁻¹] | Kd [4] [nM] | Response [4] | koff [4] [s⁻¹] | kon [4] [M⁻¹ s⁻¹] | Kd [5] [nM] | Response [5] | koff [5] [s⁻¹] | kon [5] [M⁻¹ s⁻¹]
ABL-CD3-41 (antibody, V domains shown, Chimeric hybridoma mAb: human V, CH1, upper hinge; mouse middle hinge, CH2, CH3) VH: EVQLVESGGGLVKPGGSLRLSCAASGFTFSSYSMNWVRQAPGKGLEWVSSVNSRGSYIYYADSVKGRFTISRDNAKDSLYLQMNSLRADDTAVYYCARDRRELLLDYWGQGTLVTVSS VL: SYELTQPPSVSVSPGQTARITCSGDALPKKYAYWYQQKSGQAPVLVIYEDSKRPSGIPERFSGSSSGTMATLTISGAQVEDEADYYCYSTDSSGNHCWVFGGGTKLTVL | 85 | 0.34 | 0.0395 | 464000 | 295 | 0.1 | 0.25 | 846000 | – | – | – | – | – | – | – | – | – | – | – | –
ABL-CD3-34 (antibody, V domains shown, Chimeric hybridoma mAb: human V, CH1, upper hinge; mouse middle hinge, CH2, CH3) VH: EVHLVESGGGLVKPGGSLRLSCAASGFTFSRYSMNWVRQAPGKGLEWVSSISRSSSYIYYADSVKGRFTISRDNAKNSLYLQMNSLRAEDTAVYYCAREPRTLGMDYWGQGILVTVSS VL: NFMLTQPHSVSESPGKTVTISCTRSSGSIASNYVQWYQQRPGSSPTTVIYEDNQRPSGVPDRFSGSIDSSSNSASLTISGLKTEDEADYYCQSYDSSNRVFGGGTKLTVL | – | – | – | – | – | – | – | – | 9.82 | 0.89 | 0.00196 | 199000 | 9.01 | 0.93 | 0.00211 | 234000 | – | – | – | –
ABL-CD3-51 (antibody, V domains shown, Chimeric hybridoma mAb: human V, CH1, upper hinge; mouse middle hinge, CH2, CH3) VH: EVQLVESGGGLVKPGGSLRLSCAASGFTFSSYSMNWVRQAPGKGLEWVSSISRSSSYIYYADSVKGRFTISRDNAKNSLYLQMNSLRAEDTAVYYCARERWELLYFDYWGQGTLVTVSS VL: NFMLTQPHSVSESPGKTVTISCTRSSGSIASNYVQWYQQRPGSSPTTVIYEDNQRPSGVPDRFSGSIDSSSNSASLTISGLKTEDEADYYCQSYDSSNRVFGGGTKLTVL | – | – | – | – | – | – | – | – | 233 | 0.06 | 0.163 | 699000 | 77.1 | 0.21 | 0.0188 | 244000 | – | – | – | –
ABL-CD3-59 (antibody, V domains shown, Chimeric hybridoma mAb: human V, CH1, upper hinge; mouse middle hinge, CH2, CH3) VH: EVQLVESGGGLVKPGGSLRLSCTASGFTLSSYSMNWVRQAPGKGLEWVSSLSRSSNYIYYAVSVKGRFTISRDNAKNSLYLQMNSLRAEDTAVYYCARERWELLYFDYWGQGTLVTVSS VL: NFMLTQPHSVSESPGKTVTISCTRSSGSIASNYVQWYQQRPGSSPTTVIYEDNQRPSGVPDRFSGSIDSSSNSASLTISGLQTEDEADYYCQSYDNSIRVFGGGTKLTVL | 12.7 | 0.81 | 0.00105 | 83100 | 43.3 | 0.58 | 0.00487 | 113000 | – | – | – | – | – | – | – | – | – | – | – | –
ABL-CD3-52 (antibody, V domains shown, Chimeric hybridoma mAb: human V, CH1, upper hinge; mouse middle hinge, CH2, CH3) VH: EVQLVESGGGLVKPGGSLRLSCAASGFTFSYYSMNWVRQAPGKGLEWVSSISRSTTYIYYADSVKGRFTISRDNAKNSLYLQMNSLRAEDTAVYYCARDGKGAIFLDYWGQGTLVTVSS VL: SYELTQPPSVSVSPGQTARITCSGDALPKKYAYWYQQKSGQAPVLVIYEDSKRPSGIPERFSGSSSGTMATLTISGAQVEDEADYYCYSTDSSGNHRVFGGGTKLTVL | – | – | – | – | – | – | – | – | 233 | 0.14 | 0.115 | 495000 | 54 | 0.35 | 0.0202 | 373000 | – | – | – | –
ABL-CD3-43 (antibody, V domains shown, Chimeric hybridoma mAb: human V, CH1, upper hinge; mouse middle hinge, CH2, CH3) VH: EVQLVQSGAEVKKPGESLKISCKGSEYSFTTYWIAWVRQMPGKGLEWMGIIYPGDSDTTYSPSFQGQVTISADKSISIAFLQWSSLKASDTAMYYCARQGELDAFDIWGQGTMVTVSS VL: QSALTQPASVSGSPGQSITISCTGTSSDVGSYNLVSWYQQHPGKAPKLMIYEDIRRPSGVSNRFSASKSGDTASLTISGLQAEDEADYYCCSYAGSTTFAIFGGGTKLTVL | – | – | – | – | – | – | – | – | 6.94 | 0.62 | 0.00104 | 150000 | – | – | – | – | 6.2 | 0.62 | 0.000754 | 122000
ABL-CD3-46 (antibody, V domains shown, Chimeric hybridoma mAb: human V, CH1, upper hinge; mouse middle hinge, CH2, CH3) VH: EVQLVESGGGLVKPGGSLRLSCSASGFTFSTYTMNWVRQAPGKGLDWVSSISKSSTYIYYADSVKGRFTISRDNAKNSLYLQMNSLRAEDTAVYYCARERRTLAFDIWGQGTMVTVSS VL: NFMLTQPHSVSESPGKTVTISCTRSSGSIASNYVQWYQQRPGSSPTTVIYEDNQRPSGVPDRFSGSIDSSSNSASLTISGLKTEDEADYYCQCYDRSNRVFGGGTKLTVL | – | – | – | – | – | – | – | – | 16.3 | 0.88 | 0.00333 | 204000 | – | – | – | – | 9.48 | 1.02 | 0.00171 | 180000
ABL-CD3-49 (antibody, V domains shown, Chimeric hybridoma mAb: human V, CH1, upper hinge; mouse middle hinge, CH2, CH3) VH: EVQLVESGGGLVKPGGSLRLSCSASGFTFSTYTMNWVRQAPGKGLEWVSSISKSSSYIYYTDSVKGRFTISRDNAKNSLYLQMNSLRAEDTAVYYCARERRTLAFDIWGQGTMVTVSS VL: NFMLTQPHSVSESPGKTVTISCTRSSGSIASNYVQWYQQRPGSSPTTVIYEDNQRSSGVPDRFSGSIDSSSNSASLTISGLKTEDEADYYCQCYDRSNRVFGGGTKLTVL | – | – | – | – | – | – | – | – | 11.4 | 0.82 | 0.00253 | 223000 | – | – | – | – | 6.52 | 0.93 | 0.00131 | 200000
ABL-CD3-57 (antibody, V domains shown, Chimeric hybridoma mAb: human V, CH1, upper hinge; mouse middle hinge, CH2, CH3) VH: EVQLVESGGGLVKPGGSLRLSCAASGFTFSSYTMNWVRQAPGKGLEWVSSISTSSRYIYYTDSVKGRFTISRDDAKNSLYLQMNSLRAEDTAVYYCTRNWGYDVFDIWGQGTMVIVSS VL: QPVLTQPSSHSASSGASVRLTCMLSSGFSVGDFWIRWYQQKPGNPPRYLLYYHSDSNKGQGSGVPSRFSGSNDASANAGILRISGLQPEDEADYYCGTWHSNSKTQVFGGGTKLTVL | – | – | – | – | 3.97 | 0.54 | 0.00026 | 65400 | – | – | – | – | 4.29 | 0.49 | 0.000277 | 64700 | – | – | – | –
ABL-CD3-60 (antibody, V domains shown, Chimeric hybridoma mAb: human V, CH1, upper hinge; mouse middle hinge, CH2, CH3) VH: EVQLVESGGGLVKPGGSLRLSCAASGFTFSIYSMNWVRQAPGKGLEWVSSISSGSSYIYYADSVKGRFTISRDNAKSSLFLQMNSLRAEDTAVYYCAREKRELLFDYWGQGTLVTVSS VL: NFMLTQPHSVSESPGKTVTISCTRSSGSIASNYVQWYQQRPGSSPTTVIYEDNQRPSGVPDRFSGSIDRSSNSASLTISGLKTEDEADYYCQSYDSSNRVFGGGTKLTVL | – | – | – | – | – | – | – | – | 90.7 | 0.07 | 0.0583 | 642000 | – | – | – | – | 231 | 0.1 | 0.0962 | 417000
ABL-CD3-62 (antibody, V domains shown, Chimeric hybridoma mAb: human V, CH1, upper hinge; mouse middle hinge, CH2, CH3) VH: EVQLVESGGGLVKPGGSLRLSCAASGFTFSSYSMNWVRQAPGKGLEWVSSISRSSGYIFYADSVKGRFTISRDNAKNSLYLQMNSLRAEDTAVYYCVRERVGAGFDYWGQGTLVTVSS VL: NFMLTQPHSVSESPGKTVAISCTRSSGSIASNYVQWYQQRPGSSPTAVIYEDNQRPSGVPDRFSGSIDSSSNSAFLTISGLKTEDEADYYCQSYDSSNRVFGGGTKLTVL | – | – | – | – | – | – | – | – | 23.8 | 0.69 | 0.00391 | 164000 | 34 | 0.56 | 0.00765 | 225000 | – | – | – | –
ABL-CD3-63 (antibody, V domains shown, Chimeric hybridoma mAb: human V, CH1, upper hinge; mouse middle hinge, CH2, CH3) VH: QVQLQESGPGLVKPSETLSLTCTVSGGSISSYYWSWIRQPAGKGLEWIGRIYTSGSTKYNPSLKSRVTMSVDTSKNQFSLKLISVTAADTAVYFCARERIRDLYFDYWGQGTLVTVSS VL: NFMLTQPHSVSESPGKTVTISCTRTSGSIASNYVQWYQQRPGSSPTTVIYEDNQRPSGVPDRFSGSIDSSSNSASLTISGLKTEDEAAYYCQSYDRSNRVFGGGTKLTVL | – | – | – | – | – | – | – | – | 90.4 | 0.34 | 0.0182 | 202000 | – | – | – | – | 11.5 | 0.89 | 0.00145 | 127000
